According to patent publication US20120156130A1 (published 2012):

B1: U1-49, anti-HER3 antibody (antibody, V domains shown)
VH: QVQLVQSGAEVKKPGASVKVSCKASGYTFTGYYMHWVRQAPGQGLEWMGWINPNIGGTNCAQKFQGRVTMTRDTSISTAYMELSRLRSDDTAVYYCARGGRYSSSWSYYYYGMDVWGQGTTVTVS
VL: DILMTQTPLSLSVTPGQPASISCKSSQSLLLSDGGTYLYWYLQKPGQPPQLLIYEVSNRFSGVPDRFSGSGSGTDFTLKISRVEAEDVGVYYCMQSMQLPITFGQGTRLEIK
B2: U1-59, fully human anti-HER3 monoclonal antibody (antibody, V domains shown)
VH: QVQLQQWGAGLLKPSETLSLTCAVYGGSFSGYYWSWIRQPPGKGLEWIGEINHSGSTNYNPSLKSRVTISVETSKNQFSLKLSSVTAADTAVYYCARDKWTWYFDLWGRGTLVTVSS
VL: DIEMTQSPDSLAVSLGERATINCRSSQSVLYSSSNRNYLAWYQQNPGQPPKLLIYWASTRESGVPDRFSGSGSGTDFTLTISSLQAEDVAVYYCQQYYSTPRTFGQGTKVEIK
B3: U1-53, anti-HER3 antibody (antibody, V domains shown)
VH: EVQLVESGGGLVQPGGSLRLSCAASGFTFSIYSMNWVRQAPGKGLEWVSYISSSSSTIYYADSVKGRFTISRDNAKNSLYLQMNSLRDEDTAVYYCARDRGDFDAFDIWGQGTMVTVSS
VL: DIQMTQSPSSLSASVGDRVTITCQASQDITNYLNWYQQKPGKAPKLLIYDASNLETGVPSRFSGSGSGTDFTFTISSLQPEDIATYNCQQCENFPITFGQGTRLEIK

Target: HER3 on DU-145 and PC-3 prostate cancer cells (UniProt P21860 20-1342, limits assumed)
Sequence (P21860 20-1342 limits assumed): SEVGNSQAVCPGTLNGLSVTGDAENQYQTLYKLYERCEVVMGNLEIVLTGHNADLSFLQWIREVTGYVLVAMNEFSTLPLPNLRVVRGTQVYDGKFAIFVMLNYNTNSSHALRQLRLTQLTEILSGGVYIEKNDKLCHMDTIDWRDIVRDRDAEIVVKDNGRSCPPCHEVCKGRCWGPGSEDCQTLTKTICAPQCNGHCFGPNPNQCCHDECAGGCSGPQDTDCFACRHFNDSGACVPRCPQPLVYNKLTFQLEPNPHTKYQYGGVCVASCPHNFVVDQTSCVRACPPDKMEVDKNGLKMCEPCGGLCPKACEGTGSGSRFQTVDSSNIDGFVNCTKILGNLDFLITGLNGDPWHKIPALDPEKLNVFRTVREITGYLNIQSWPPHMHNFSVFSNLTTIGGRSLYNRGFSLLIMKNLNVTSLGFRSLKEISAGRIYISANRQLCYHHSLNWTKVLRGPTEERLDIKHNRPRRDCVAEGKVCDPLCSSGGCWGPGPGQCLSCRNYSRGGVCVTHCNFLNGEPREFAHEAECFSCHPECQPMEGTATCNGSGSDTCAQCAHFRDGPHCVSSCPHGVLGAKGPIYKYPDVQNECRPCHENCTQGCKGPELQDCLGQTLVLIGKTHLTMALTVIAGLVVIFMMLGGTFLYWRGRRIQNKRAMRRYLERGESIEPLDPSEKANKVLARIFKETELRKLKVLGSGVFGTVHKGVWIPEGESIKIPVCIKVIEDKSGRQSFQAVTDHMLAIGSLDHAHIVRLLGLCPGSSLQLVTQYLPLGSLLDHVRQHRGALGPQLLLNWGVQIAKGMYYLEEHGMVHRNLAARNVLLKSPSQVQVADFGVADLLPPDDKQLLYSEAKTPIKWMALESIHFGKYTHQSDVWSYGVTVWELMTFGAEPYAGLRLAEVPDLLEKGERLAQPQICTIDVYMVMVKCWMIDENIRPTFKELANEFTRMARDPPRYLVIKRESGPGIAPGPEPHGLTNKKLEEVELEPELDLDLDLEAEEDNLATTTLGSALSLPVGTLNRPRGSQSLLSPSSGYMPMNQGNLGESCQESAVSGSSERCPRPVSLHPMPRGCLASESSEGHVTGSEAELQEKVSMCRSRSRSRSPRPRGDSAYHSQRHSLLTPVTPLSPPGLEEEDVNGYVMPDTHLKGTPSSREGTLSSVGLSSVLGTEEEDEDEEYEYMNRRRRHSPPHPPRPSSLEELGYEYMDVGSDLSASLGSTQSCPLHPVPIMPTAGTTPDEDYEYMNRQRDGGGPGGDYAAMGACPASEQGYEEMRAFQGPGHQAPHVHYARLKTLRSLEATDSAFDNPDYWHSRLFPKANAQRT
Experiment: cell-based or functional assay

| Binder | inhibition in colony formation (anchorage independent growth of PC-3 cells, soft agar) |
| --- | --- |
| B1 | 52% |
| B2 | 78% |
| B3 | 78% |
